The values below come from the supplement of paper PMC9170038.

The subject of this series is MS2 coat protein. Put plainly: apparent KD of MS2 coat protein; designed switch direction (-1 OFF switch, 1 ON switch): -1; higher = weaker reporter binding. The method, boiled down: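 Three titration conditions were used: no input, 200 uM small-molecule ligand, and an oligonucleotide input. In each, SNAP-549-labelled MS2 coat protein was raised from 0.7 or 1.5 nM, doubling, to 3 µM over designed RNA switches transcribed on Illumina chips by stalled E. coli RNA polymerase. Curve fits of normalised cluster fluorescence gave values whose per-design median over clusters is the apparent KD.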

The mark [1] stands for this setting: input ligand: microRNA oligo, concentration not stated.
Setting [2] is: Eterna round: R95, input ligand: FMN 200 uM.
[3] abbreviates: Eterna round: R95, input ligand: microRNA oligo, concentration not stated.
Where [4] appears, read: Eterna round: R95, input ligand: none.

For “CAUUAUUAUCGAGGAUAUCCUAUUGAAAUUCUGGGAGAAGGCGGACUCAACAUGAGGAUCACCCAUGUGGGACGGAUGCUGGGA [salish99_exng1_r04_604] (Eterna round: R96, puzzle: Exclusion NG 1)”, the “apparent KD of MS2 coat protein” value by setting is: (input ligand: FMN 200 uM) 18 nM; under setting [1], 20.9 nM; (input ligand: none) 21 nM.
Regarding “CAUUCAGAUGUCAGGAUAUCUGCGGGUAGGGCCGAAGAGAAGGGACAUGAGGAUCACCCAUGUACACUGCUAGA [BmEX4 B.28] (Eterna round: R97, puzzle: Brourd's mod of Exclusion 4)”, the “apparent KD of MS2 coat protein” value runs as follows: (input ligand: FMN 200 uM) 22.9 nM; (input ligand: none) 16 nM.
The like results for “CCAAACAGAGGAUAUGCGAAUAAAUAAAACUUUUUUUUUUAACAUGAGGAUCACCCAUGUAGAAGGCUGAAACC [Ex2 #41] (Eterna round: R97, puzzle: Exclusion 2)” were, in that order, 29.3 nM and 27.6 nM.
Turning to “CCAAAUCAUGUAGGAUAUGCGUGGCGAAGCUAUGCAGAAGGACAUGAGGAUCACCCAUGUGCUUCCGUCUGCGUACAGACGGUA [JL ENG1 1.15] (Eterna round: R96, puzzle: Exclusion NG 1)”, the “apparent KD of MS2 coat protein” value was found to be 123 nM (input ligand: FMN 200 uM), 103 nM under setting [1] and 118 nM (input ligand: none).
“CCAAAUUCAGGAUAUACGAUGGUGAGUUCGUCCUCAAGGCCACAUGAGGAUCACCCAUGUAGAAGGGAGGUCGG [Eternabot (L1) Solution 77] (Eterna round: R97, puzzle: Exclusion 2)”: the “apparent KD of MS2 coat protein” value stood at 130 nM (input ligand: FMN 200 uM) and 35.6 nM (input ligand: none).
In the same order, the values of “CCAACCAGAGGAUAUGCGAAUAAAUAAAACUUUUUUUUUUAACAUGAGGAUCACCCAUGUAGAAGGCUGCAACC [Ex2 #39] (Eterna round: R97, puzzle: Exclusion 2)” are 32 nM and 34.8 nM.
The like results for “CCAAGAUAAGGAUAUUGAAGGUUCGACAUGAGGAUCACCCAUGUUAUGUUGGAAAAGGGACAAGAAGGUAUGAAAA [salish99_ex5_r4_215] (Eterna round: R97, puzzle: Exclusion 5)” were, in that order, 27.6 nM and 34.3 nM.
As to “CCAAGCUAUUUCAUAACAAACAUGAGGAUCACCCAUGUGUAAGCAAUUAUGUUUGGGCUCUUUAGUGCUCGUCUUAU [JR_STOV1_Sub046] (Eterna round: R97, puzzle: Sensor, turn-off variant 1)”, the “apparent KD of MS2 coat protein” value was 19.2 nM (input ligand: FMN 200 uM) and 19.2 nM (input ligand: none).
As for “CCAAGCUGUGUGAGGAUAUGCUGGACCUUGGUUCAGCAGAAGGCACAUGAGGAUCACCCAUGUGAAAAGCUUGG [Mat - Exclusion 4 - JL Mod - D94] (puzzle: Brourd's mod of Exclusion 4)”, the “apparent KD of MS2 coat protein” value runs as follows: under setting [2], 47.5 nM; under setting [3], 16.6 nM; under setting [4], 16.4 nM.
On to “CCAAGCUUAUUCAUUAACCACAUGAGGAUCACCCAUGUAUAGGCAAUUAUGACUGGCCCAUCUGGUGCUCGUCUUAU [Sensor-V1 #30] (Eterna round: R97, puzzle: Sensor, turn-off variant 1)”, for which the “apparent KD of MS2 coat protein” value was 17 nM (input ligand: FMN 200 uM) and 15.9 nM (input ligand: none).
In the same order, the values of “CCAAGCUUAUUCAUUAACCACAUGAGGAUCACCCAUGUCUUGGCAAUUAUGACUUGCCCGUCAGGUGCUCGUCUUAU [Sensor-V1 #34] (Eterna round: R97, puzzle: Sensor, turn-off variant 1)” are 32.2 nM and 32.9 nM.
The like results for “CCAAGCUUUUUCAAUAACAACAUGAGGAUCACCCAUGUUUAAGCUAUUACUUUUGGGCUCUUUAGUGCUAGUCUUAU [JR_STOV1_Sub038] (Eterna round: R97, puzzle: Sensor, turn-off variant 1)” were, in that order, 18 nM and 18.2 nM.
In the same order, the values of “CCAAGGGAGGAGGAUAUACCCGCCAAUUGGCUUGUAGAAGGCCUCACAUGAGGAUCACCCAUGUGGGACAAAAC [Eternabot (Original) Solution 21] (Eterna round: R97, puzzle: Exclusion 6)” are 22.8 nM and 18.4 nM.
With “CCAAGUUCAUAGGAUAUCAGACGGAUAAAGGUAUGAGAAGGAUGAACAUGAGGAUCACCCAUGUGCACUCCCGA [EX6 B.19] (Eterna round: R97, puzzle: Exclusion 6)”, the “apparent KD of MS2 coat protein” value reads like this: (input ligand: FMN 200 uM) 34.1 nM; (input ligand: none) 14.2 nM.
For “CCAAUACAAGGAUAUGCGAUGCAUGUCAGGUUAGUAGACAGACAUGAGGAUCACCCAUGUAGAAGGUGUGUUGG [Eternabot (L2) Solution 55] (Eterna round: R97, puzzle: Exclusion 2)”, the “apparent KD of MS2 coat protein” value (input ligand: FMN 200 uM) turned out to be 75.6 nM and the “apparent KD of MS2 coat protein” value (input ligand: none) came to 41.4 nM.
Turning to “CCACGACAUGAGGAUCACCCAUGUGAGGAUAUGGCCUGAAAAGCGUGAGCAGUUUUUAUCAGAAGGCGCGUGGG [salish99_ex1_r4_064_4A's4U's] (Eterna round: R97, puzzle: Exclusion 1)”, the “apparent KD of MS2 coat protein” value (input ligand: FMN 200 uM) was found to be 63.6 nM and the “apparent KD of MS2 coat protein” value (input ligand: none) is 31.5 nM.
In the same order, the values of “CCACGACAUGAGGAUCACCCAUGUGAGGAUAUGGCCUGUAAAGCGUGAGCUGAAUCAAUCAGAAGGCGCGUGGG [salish99_ex1_r4_058] (Eterna round: R97, puzzle: Exclusion 1)” are 119 nM and 46.1 nM.
Take “CCACGUCCGUACGUGUACUUGUCUCCUGAGAGCACGGGCACAUGAGGAUCACCCAUGUUUUUGCUCGUCUUAUGAGC [JR_Sensorv2_tov2_Sub716] (Eterna round: R96, puzzle: Sensor v2, turn-off variant 2)”: the “apparent KD of MS2 coat protein” value (input ligand: FMN 200 uM) is 13.8 nM, the “apparent KD of MS2 coat protein” value under setting [1] worked out at 25.4 nM and the “apparent KD of MS2 coat protein” value (input ligand: none) worked out at 17.7 nM.
On to “CCAGCAAAUGUGAGGAUAUGCUGGUCCUUGGAUCAGCAGAAGGCACAUGAGGAUCACCCAUGUGGGAUAGCUGG [Eli bmx4 4.59] (Eterna round: R97, puzzle: Brourd's mod of Exclusion 4)”, for which the “apparent KD of MS2 coat protein” value worked out at 412 nM (input ligand: FMN 200 uM) and 194 nM (input ligand: none).
The like results for “CCAGCAAUUGUCAGGAUAUGCUGGUCCUUGGAUCAGCAGAAGGGACAUGAGGAUCACCCAUGUGGAAAAGCUGG [Eli bmx4 4.64] (Eterna round: R97, puzzle: Brourd's mod of Exclusion 4)” were, in that order, 231 nM and 54.7 nM.
For “CCAGCGUAUGUGAGGAUAUGCUGGUCCUUGGAUCAGCAGAAGGCACAUGAGGAUCACCCAUGUGAUGACGUUGG [JL bmx4 3.40] (puzzle: Brourd's mod of Exclusion 4)”, under setting [3], the “apparent KD of MS2 coat protein” value stood at 42.6 nM.
As to “CCAGGAAGGCAGGAUAUCCAAAGCCGUCCCGGCGGAGAAGGGCUAACUUGAGGAUCACCCAAGUGAUGCCUAAC [Oreden] (Eterna round: R97, puzzle: Exclusion 6)”, the “apparent KD of MS2 coat protein” value reads like this: (input ligand: FMN 200 uM) 13 nM; (input ligand: none) 14.2 nM.
The like results for “CCAGGCAGGCUAUUUGCUCACAUGAGGAUCACCCAUGUUGUAUCCCUUGAAUCUAGAUGGUUCAGGCUUAAUUAUUU [Eternabot (L2) Solution 28] (Eterna round: R97, puzzle: Sensor, turn-off variant 1)” were, in that order, 47.5 nM and 66 nM.
For the sequence “CCAGUGUAAGGAUAUGACAAUGGUAUCUUCGGAUACCAUUGUCAGAAGGUACAUGAGGAUCACCCAUGUAACAC [Ex4-3: 12] (puzzle: Exclusion 4)”, under setting [3], the “apparent KD of MS2 coat protein” value was found to be 15.3 nM.
As to “CCAUAUAACUGAGGAUAUCAUCGCAACUGACGUUGAGAAGGCAGACAUGAGGAUCACCCAUGUGAUUUCUCAAUAUUAUACAUC [Prohibition 80 - Jieux - Exclusion NG 1] (Eterna round: R96, puzzle: Exclusion NG 1)”, the “apparent KD of MS2 coat protein” value was 245 nM (input ligand: FMN 200 uM), 31.2 nM under setting [1] and 61.1 nM (input ligand: none).
On to “CCAUCGAGUGUGAGGAUAUGCUGGUCAAUAGAUCAGCAGAAGGCACAUGAGGAUCACCCAUGUGGAGACGGUGG [Mat - Exclusion 4 - JL Mod - D79] (puzzle: Brourd's mod of Exclusion 4)”, for which the “apparent KD of MS2 coat protein” value by setting is: under setting [2], 333 nM; under setting [3], 44.8 nM; under setting [4], 70.6 nM.
“CCAUCGUGUGUGAGGAUAUGCUGGACCUUGGUUCAGCAGAAGGCACAUGAGGAUCACCCAUGUGAAGACGGUGG [Mat - Exclusion 4 - JL Mod - D89] (puzzle: Brourd's mod of Exclusion 4)”: the “apparent KD of MS2 coat protein” value under setting [2] was found to be 51.4 nM, the “apparent KD of MS2 coat protein” value under setting [3] was 24.6 nM and the “apparent KD of MS2 coat protein” value under setting [4] amounted to 18.1 nM.
In the case of “CCAUGGGAGCGAGGAUAUAGCCCAUGGGAAGAGCUAGAAGGCGCAGACAUGAGGAUCACCCAUGUGUUCAUGAGGAGGUGGACA (Eterna round: R96, puzzle: Exclusion NG 1)”, the “apparent KD of MS2 coat protein” value was 95.5 nM (input ligand: FMN 200 uM), 47.9 nM under setting [1] and 73.7 nM (input ligand: none).
For the sequence “CCAUGUUAGCAGGAUAUGCCAUUAUUCCUUUACGCAGAAGGGCUUACAUGAGGAUCACCCAUGUAACAUUUCAU [JR_E6_Sub083] (puzzle: Exclusion 6)”, the “apparent KD of MS2 coat protein” value under setting [3] stood at 14.1 nM.
In the case of “CCAUUAUAAGGAUAUACAUGAGGAUCACCCAUGUACAGGUUAGUUGUACGUACACCGAGUAGAAGGUAUAGAGG [Eternabot (L1) Solution 21] (Eterna round: R97, puzzle: Exclusion 3)”, the “apparent KD of MS2 coat protein” value reads like this: (input ligand: FMN 200 uM) 62.5 nM; (input ligand: none) 63.4 nM.
